# Test results as given in US10941182 (Amgen, dated 2021).
# Starred links: 1 amine or outer side, 2 acyl side, 3 side chain; linkers in the order of their positions; H or OH if unused. Non-standard residues stand in square brackets, D forms with d. Primed or numbered codes have the meaning given here. *: point of attachment. AC4Abu = α-carboxy-4-aminobutyric acid, O=C(C(CCN[*:1])C(=O)[*:3])[*:2]; Oic = O=C(O)[C@@H]1C[C@@H]2CCCC[C@@H]2N1; Phe(4-Cl) = N[C@@H](Cc1ccc(Cl)cc1)C(=O)O; γGlu = O=C(O)[C@H](CCC(=O)[*:2])N[*:1]; 2Nal = N[C@@H](Cc1ccc2ccccc2c1)C(=O)O; NMeR = CN[C@@H](CCCNC(=N)N)C(=O)O; Tridecanoyl = CCCCCCCCCCCCC(=O)*; hArg = N=C(N)NCCCC[C@H](N)C(=O)O; Cha = N[C@@H](CC1CCCCC1)C(=O)O; αMeL = CC(C)C[C@](C)(N)C(=O)O; β3hP = O=C(O)C[C@@H]1CCCN1; Nle = CCCC[C@H](N)C(=O)O; Pip′ = not defined here; AEEA = NCCOCCOCC(=O)O; Aib = CC(C)(N)C(=O)O; BLeu = β-leucine
# T1: rat APJ receptor (rat, UniProt Q9JHG3 1-377)
# T1 sequence (looked up): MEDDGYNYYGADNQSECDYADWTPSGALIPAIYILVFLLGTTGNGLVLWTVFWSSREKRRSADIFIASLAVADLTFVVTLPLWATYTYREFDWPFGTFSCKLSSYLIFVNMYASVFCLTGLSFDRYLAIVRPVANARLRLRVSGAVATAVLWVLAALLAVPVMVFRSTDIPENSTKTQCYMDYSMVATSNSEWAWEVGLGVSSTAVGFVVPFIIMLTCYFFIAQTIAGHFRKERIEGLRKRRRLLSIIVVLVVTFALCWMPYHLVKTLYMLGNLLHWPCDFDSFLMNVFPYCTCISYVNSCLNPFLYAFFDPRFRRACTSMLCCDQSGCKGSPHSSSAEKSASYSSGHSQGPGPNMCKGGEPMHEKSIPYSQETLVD
# T2: human APJ receptor (human, UniProt P35414 1-380)
# T2 sequence (looked up): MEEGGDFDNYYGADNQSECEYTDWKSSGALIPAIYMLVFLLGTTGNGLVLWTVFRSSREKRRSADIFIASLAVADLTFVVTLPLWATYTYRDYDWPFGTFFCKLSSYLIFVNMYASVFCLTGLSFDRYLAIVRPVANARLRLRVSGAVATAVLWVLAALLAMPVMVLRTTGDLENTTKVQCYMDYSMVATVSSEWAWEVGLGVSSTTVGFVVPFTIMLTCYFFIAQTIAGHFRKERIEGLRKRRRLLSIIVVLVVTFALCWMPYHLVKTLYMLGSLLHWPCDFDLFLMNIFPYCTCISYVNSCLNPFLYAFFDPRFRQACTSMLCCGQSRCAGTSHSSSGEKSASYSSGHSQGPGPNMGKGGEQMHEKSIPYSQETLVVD
# B1: Apelin polypeptide SEQ ID NO: 516 (peptide)
# peptide: Tridecanoyl-[γGlu][AEEA][AEEA][dQ]R[β3hP][NMeR][Cha]SHKG[Oic][Nle][Aib][Phe(4-Cl)]-OH
# SMILES: CCCCCCCCCCCCC(=O)N[C@@H](CCC(=O)NCCOCCOCC(=O)NCCOCCOCC(=O)N[C@H](CCC(N)=O)C(=O)N[C@@H](CCCNC(=N)N)C(=O)N1CCC[C@H]1CC(=O)N(C)[C@@H](CCCNC(=N)N)C(=O)N[C@@H](CC1CCCCC1)C(=O)N[C@@H](CO)C(=O)N[C@@H](Cc1c[nH]cn1)C(=O)N[C@@H](CCCCN)C(=O)NCC(=O)N1[C@H](C(=O)N[C@@H](CCCC)C(=O)NC(C)(C)C(=O)N[C@@H](Cc2ccc(Cl)cc2)C(=O)O)C[C@@H]2CCCC[C@@H]21)C(=O)O
# B2: Apelin polypeptide SEQ ID NO: 360 (peptide)
# peptide: Tridecanoyl-[γGlu][AEEA][AEEA]QRP[hArg][αMeL]SHKG[Oic][Nle]P[Phe(4-Cl)]-OH
# SMILES: CCCCCCCCCCCCC(=O)N[C@@H](CCC(=O)NCCOCCOCC(=O)NCCOCCOCC(=O)N[C@@H](CCC(N)=O)C(=O)N[C@@H](CCCNC(=N)N)C(=O)N1CCC[C@H]1C(=O)N[C@@H](CCCCNC(=N)N)C(=O)N[C@@](C)(CC(C)C)C(=O)N[C@@H](CO)C(=O)N[C@@H](Cc1c[nH]cn1)C(=O)N[C@@H](CCCCN)C(=O)NCC(=O)N1[C@H](C(=O)N[C@@H](CCCC)C(=O)N2CCC[C@H]2C(=O)N[C@@H](Cc2ccc(Cl)cc2)C(=O)O)C[C@@H]2CCCC[C@@H]21)C(=O)O
# B3: Apelin polypeptide SEQ ID NO: 404 (peptide)
# peptide: Tridecanoyl-[AC4Abu][AEEA][AEEA]QRP[hArg][αMeL]SHKGP[Nle]P[2Nal]-OH
# SMILES: CCCCCCCCCCCCC(=O)NCCC(C(=O)O)C(=O)NCCOCCOCC(=O)NCCOCCOCC(=O)N[C@@H](CCC(N)=O)C(=O)N[C@@H](CCCNC(=N)N)C(=O)N1CCC[C@H]1C(=O)N[C@@H](CCCCNC(=N)N)C(=O)N[C@@](C)(CC(C)C)C(=O)N[C@@H](CO)C(=O)N[C@@H](Cc1c[nH]cn1)C(=O)N[C@@H](CCCCN)C(=O)NCC(=O)N1CCC[C@H]1C(=O)N[C@@H](CCCC)C(=O)N1CCC[C@H]1C(=O)N[C@@H](Cc1ccc2ccccc2c1)C(=O)O
# B4: Apelin polypeptide SEQ ID NO: 529 (peptide)
# peptide: Tridecanoyl-[γGlu][AEEA][AEEA][dQ]RP[Nle][Cha]SAKG[Oic][Nle][Aib][Phe(4-Cl)]-OH
# SMILES: CCCCCCCCCCCCC(=O)N[C@@H](CCC(=O)NCCOCCOCC(=O)NCCOCCOCC(=O)N[C@H](CCC(N)=O)C(=O)N[C@@H](CCCNC(=N)N)C(=O)N1CCC[C@H]1C(=O)N[C@@H](CCCC)C(=O)N[C@@H](CC1CCCCC1)C(=O)N[C@@H](CO)C(=O)N[C@@H](C)C(=O)N[C@@H](CCCCN)C(=O)NCC(=O)N1[C@H](C(=O)N[C@@H](CCCC)C(=O)NC(C)(C)C(=O)N[C@@H](Cc2ccc(Cl)cc2)C(=O)O)C[C@@H]2CCCC[C@@H]21)C(=O)O
# B5: Apelin polypeptide SEQ ID NO: 446 (peptide)
# peptide: Tridecanoyl-[γGlu][AEEA][AEEA]QR[NMeR][Cha]SHKG[Oic][Nle]P[Phe(4-Cl)]-OH
# SMILES: CCCCCCCCCCCCC(=O)N[C@@H](CCC(=O)NCCOCCOCC(=O)NCCOCCOCC(=O)N[C@@H](CCC(N)=O)C(=O)N[C@@H](CCCNC(=N)N)C(=O)N(C)[C@@H](CCCNC(=N)N)C(=O)N[C@@H](CC1CCCCC1)C(=O)N[C@@H](CO)C(=O)N[C@@H](Cc1c[nH]cn1)C(=O)N[C@@H](CCCCN)C(=O)NCC(=O)N1[C@H](C(=O)N[C@@H](CCCC)C(=O)N2CCC[C@H]2C(=O)N[C@@H](Cc2ccc(Cl)cc2)C(=O)O)C[C@@H]2CCCC[C@@H]21)C(=O)O
# B6: Apelin polypeptide SEQ ID NO: 396 (peptide)
# peptide: Tridecanoyl-[AC4Abu][AEEA][AEEA]QR[NMeR][αMeL]SHKG[Oic][Nle]P[Phe(4-Cl)]-OH
# SMILES: CCCCCCCCCCCCC(=O)NCCC(C(=O)O)C(=O)NCCOCCOCC(=O)NCCOCCOCC(=O)N[C@@H](CCC(N)=O)C(=O)N[C@@H](CCCNC(=N)N)C(=O)N(C)[C@@H](CCCNC(=N)N)C(=O)N[C@@](C)(CC(C)C)C(=O)N[C@@H](CO)C(=O)N[C@@H](Cc1c[nH]cn1)C(=O)N[C@@H](CCCCN)C(=O)NCC(=O)N1[C@H](C(=O)N[C@@H](CCCC)C(=O)N2CCC[C@H]2C(=O)N[C@@H](Cc2ccc(Cl)cc2)C(=O)O)C[C@@H]2CCCC[C@@H]21
# B7: Apelin polypeptide SEQ ID NO: 476 (peptide)
# peptide: Tridecanoyl-[γGlu][AEEA][AEEA]QRE[NMeR]LSHKGP[Nle]P[Phe(4-Cl)]-OH
# SMILES: CCCCCCCCCCCCC(=O)N[C@@H](CCC(=O)NCCOCCOCC(=O)NCCOCCOCC(=O)N[C@@H](CCC(N)=O)C(=O)N[C@@H](CCCNC(=N)N)C(=O)N[C@@H](CCC(=O)O)C(=O)N(C)[C@@H](CCCNC(=N)N)C(=O)N[C@@H](CC(C)C)C(=O)N[C@@H](CO)C(=O)N[C@@H](Cc1c[nH]cn1)C(=O)N[C@@H](CCCCN)C(=O)NCC(=O)N1CCC[C@H]1C(=O)N[C@@H](CCCC)C(=O)N1CCC[C@H]1C(=O)N[C@@H](Cc1ccc(Cl)cc1)C(=O)O)C(=O)O
# B8: Apelin polypeptide SEQ ID NO: 356 (peptide)
# peptide: Tridecanoyl-[γGlu][AEEA][AEEA]QRP[hArg]LSHKG[Oic][Nle]P[Phe(4-Cl)]-OH
# SMILES: CCCCCCCCCCCCC(=O)N[C@@H](CCC(=O)NCCOCCOCC(=O)NCCOCCOCC(=O)N[C@@H](CCC(N)=O)C(=O)N[C@@H](CCCNC(=N)N)C(=O)N1CCC[C@H]1C(=O)N[C@@H](CCCCNC(=N)N)C(=O)N[C@@H](CC(C)C)C(=O)N[C@@H](CO)C(=O)N[C@@H](Cc1c[nH]cn1)C(=O)N[C@@H](CCCCN)C(=O)NCC(=O)N1[C@H](C(=O)N[C@@H](CCCC)C(=O)N2CCC[C@H]2C(=O)N[C@@H](Cc2ccc(Cl)cc2)C(=O)O)C[C@@H]2CCCC[C@@H]21)C(=O)O
# B9: Apelin polypeptide SEQ ID NO: 308 (peptide)
# peptide: Tridecanoyl-[γGlu][AEEA][AEEA]QRP[hArg][Cha]SHKG[Oic][Nle]P[Phe(4-Cl)]-OH
# SMILES: CCCCCCCCCCCCC(=O)N[C@@H](CCC(=O)NCCOCCOCC(=O)NCCOCCOCC(=O)N[C@@H](CCC(N)=O)C(=O)N[C@@H](CCCNC(=N)N)C(=O)N1CCC[C@H]1C(=O)N[C@@H](CCCCNC(=N)N)C(=O)N[C@@H](CC1CCCCC1)C(=O)N[C@@H](CO)C(=O)N[C@@H](Cc1c[nH]cn1)C(=O)N[C@@H](CCCCN)C(=O)NCC(=O)N1[C@H](C(=O)N[C@@H](CCCC)C(=O)N2CCC[C@H]2C(=O)N[C@@H](Cc2ccc(Cl)cc2)C(=O)O)C[C@@H]2CCCC[C@@H]21)C(=O)O
# Experiments:
# [1] = target: T1, rat APJ receptor; experiment: cell-based or functional assay
# [2] = target: T2, human APJ receptor; experiment: cell-based or functional assay
Binder,EC50 Rat APJ Receptor (GTPγS assay) [1] [nM],EC50 Human APJ Receptor (GTPγS assay) [2] [nM]
Tridecanoyl-[γGlu][AEEA][AEEA][dQ]RP[hArg][BLeu]SHKG[Oic][Nle]P[Phe(4-Cl)]-OH [Apelin polypeptide SEQ ID NO: 378],0.411,0.26
Tridecanoyl-[γGlu][AEEA][AEEA]QR[NMeR][BLeu]SHKG[Oic][Nle]P[Phe(4-Cl)]-OH [Apelin polypeptide SEQ ID NO: 447],14.8,9.66
B1,2.02,0.557
B2,0.0827,0.0519
Tridecanoyl-[γGlu][AEEA][AEEA][dQ]R[Pip′][hArg][BLeu]SHKG[Oic][Nle][Aib][Phe(4-Cl)]-OH [Apelin polypeptide SEQ ID NO: 521],3.21,1.03
B3,0.361,0.298
B4,24,5.26
B5,1.9,1.11
Tridecanoyl-[γGlu][AEEA][AEEA][dQ]R[Pip′][NMeR][Cha]SHKG[Oic][Nle][Aib][Phe(4-Cl)]-OH [Apelin polypeptide SEQ ID NO: 517],3.22,0.62
Tridecanoyl-[γGlu][AEEA][AEEA]QR[Pip′][NMeR][Cha]SHKG[Oic][Nle]P[Phe(4-Cl)]-OH [Apelin polypeptide SEQ ID NO: 440],4.26,3.48
B6,1.14,0.977
B7,0.873,0.346
B8,0.289,0.321
B9,0.18,0.0867
